Consider 2 substances from publication PMC10432803.

The stoichiometry N is the number of molecules, sites or subunits per partner or assembly.

Test [1] addresses PaSOD-1 (Cys-less CuZnSOD from Paenibacillus lautus NBRC 15380, WP_246059278.1 without the predicted signal peptide) (Paenibacillus lautus NBRC 15380). The test is described as follows: SEC-MALS; apo form; 20 μM protein in MN buffer (50 mM Mops, 100 mM NaCl, pH 7.0); Cosmosil 5Diol-300-II column, miniDAWN TREOS.
Test [2] shares this target. In words: SEC-MALS; holo form (copper and zinc bound); 20 μM protein in MN buffer (50 mM Mops, 100 mM NaCl, pH 7.0); Cosmosil 5Diol-300-II column, miniDAWN TREOS. Background: Size exclusion chromatography separates by hydrodynamic size, large species first.
The target in test [3] is PaSOD-2 (Cys-less CuZnSOD from Paenibacillus lautus NBRC 15380, WP_246059286.1 without the predicted signal peptide) (Paenibacillus lautus NBRC 15380). In words: SEC-MALS; apo form; 20 μM protein in MN buffer (50 mM Mops, 100 mM NaCl, pH 7.0); Cosmosil 5Diol-300-II column, miniDAWN TREOS.
For test [4] the target is unchanged. The test is described as follows: SEC-MALS; holo form (copper and zinc bound); 20 μM protein in MN buffer (50 mM Mops, 100 mM NaCl, pH 7.0); Cosmosil 5Diol-300-II column, miniDAWN TREOS.

Consider “PaSOD-1 (Cys-less CuZnSOD from Paenibacillus lautus NBRC 15380, WP_246059278.1 without the predicted signal peptide) (enzyme)”, for which the stoichiometry N in test [1] and in test [2] was 2 throughout.

As to “PaSOD-2 (Cys-less CuZnSOD from Paenibacillus lautus NBRC 15380, WP_246059286.1 without the predicted signal peptide) (enzyme)”, the stoichiometry N in test [3] and in test [4] was 2 each time.
